These results are taken from article PMC3169606, “Pub1p C-Terminal RRM Domain Interacts with Tif4631p through a Conserved Region Neighbouring the Pab1p Binding Site” (PLoS ONE, 2011).

Data set [1] addresses T1, Pub1p R3 (RRM3, TRRM) (Saccharomyces cerevisiae, UniProt P32588 315-414).
T1 sequence: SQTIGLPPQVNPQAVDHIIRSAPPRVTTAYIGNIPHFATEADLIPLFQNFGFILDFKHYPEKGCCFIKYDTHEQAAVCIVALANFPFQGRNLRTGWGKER
The data set can be described thus: NMR titration; 1:1 protein:RNA; Kd n.d.; 25 mM potassium phosphate pH 7.0 (6.5-7.0 in general NMR methods), 25 mM NaCl, 0.5 mM DTT, 25 C; 100 µM protein, RNA up to 400 µM (R3) or 1:1 (R12). As to conditions: protein: recombinant; tags: TrxA-6xHis tag removed by TEV; chain copies: 2; single strand.

The target in data set [2] is T2, Pub1p R12 (RRM1-RRM2) (Saccharomyces cerevisiae, UniProt P32588 32-242).
T2 sequence: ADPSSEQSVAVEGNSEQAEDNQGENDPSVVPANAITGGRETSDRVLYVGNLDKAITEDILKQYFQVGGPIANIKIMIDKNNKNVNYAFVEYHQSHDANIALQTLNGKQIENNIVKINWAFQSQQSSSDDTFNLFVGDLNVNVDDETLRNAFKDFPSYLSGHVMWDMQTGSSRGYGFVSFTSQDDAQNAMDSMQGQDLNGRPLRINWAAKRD
As to the kind of experiment: NMR titration; intermediate exchange; 25 mM potassium phosphate pH 7.0 (6.5-7.0 in general NMR methods), 25 mM NaCl, 0.5 mM DTT, 25 C; 100 µM protein, RNA up to 400 µM (R3) or 1:1 (R12). As to conditions: protein: recombinant; tags: TrxA-6xHis tag removed by TEV; single strand.

For data set [3], the target named is T1, Pub1p R3 (RRM3, TRRM). The data set can be described thus: NMR titration; 2:1 protein:RNA; 25 mM potassium phosphate pH 7.0 (6.5-7.0 in general NMR methods), 25 mM NaCl, 0.5 mM DTT, 25 C; 100 µM protein, RNA up to 400 µM (R3) or 1:1 (R12). The conditions noted are these: protein: recombinant; tags: TrxA-6xHis tag removed by TEV; chain copies: 2; single strand.

Data set [4] has as its target T2, Pub1p R12 (RRM1-RRM2). As to the kind of experiment: NMR titration; slow exchange; 25 mM potassium phosphate pH 7.0 (6.5-7.0 in general NMR methods), 25 mM NaCl, 0.5 mM DTT, 25 C; 100 µM protein, RNA up to 400 µM (R3) or 1:1 (R12). As to conditions: protein: recombinant; tags: TrxA-6xHis tag removed by TEV; single strand.
For data set [5], the target named is T1, Pub1p R3 (RRM3, TRRM). As to the kind of experiment: NMR titration; 1:1 protein:RNA; 25 mM potassium phosphate pH 7.0 (6.5-7.0 in general NMR methods), 25 mM NaCl, 0.5 mM DTT, 25 C; 100 µM protein, RNA up to 400 µM (R3) or 1:1 (R12). The conditions noted are these: protein: recombinant; tags: TrxA-6xHis tag removed by TEV; chain copies: 2; single strand.
In a further data set the target is T3, Tif4631p (1–402) (Saccharomyces cerevisiae, UniProt P39935 1-402).
T3 construct: Cloned 'following equivalent methods' to the Pub1p constructs (same modified pET28 vector); Unlabelled or 15N-labelled according to the NMR experiment; source: E. coli BL21(DE3), purified (HisTrap, TEV digestion, second nickel column, anion exchange MonoQ); not shown: thioredoxin A, N-terminal, cleaved; His6, internal, cleaved
T3 sequence (looked up): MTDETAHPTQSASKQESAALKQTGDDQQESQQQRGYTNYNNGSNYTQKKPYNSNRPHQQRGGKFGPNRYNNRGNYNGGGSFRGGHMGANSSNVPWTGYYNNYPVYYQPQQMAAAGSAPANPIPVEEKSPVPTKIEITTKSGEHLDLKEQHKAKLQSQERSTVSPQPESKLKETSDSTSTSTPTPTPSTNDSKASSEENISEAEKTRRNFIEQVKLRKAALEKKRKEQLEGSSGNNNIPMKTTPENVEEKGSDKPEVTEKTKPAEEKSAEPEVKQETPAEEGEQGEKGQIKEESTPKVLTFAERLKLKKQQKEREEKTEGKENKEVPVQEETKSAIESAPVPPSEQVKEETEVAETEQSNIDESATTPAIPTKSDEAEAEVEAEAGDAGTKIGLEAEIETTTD
As to the kind of experiment: NMR titration; 1H-15N HSQC of 100 µM 15N-labelled Tif4631p (1–402) with 120 µM unlabelled Pub1p R3 added; 25 mM potassium phosphate pH 7.0, 25 mM NaCl, 0.1 mM DTT, 25°C. The conditions noted are these: both partners purified.

In another data set the target is T4, Tif4631p (1–184) (Saccharomyces cerevisiae, UniProt P39935 1-184).
T4 construct: Tif4631p (yeast eIF4G1), Saccharomyces cerevisiae, residues 1-184; Cloned 'following equivalent methods' to the Pub1p constructs; source: E. coli BL21(DE3), purified (HisTrap, TEV digestion, second nickel column, anion exchange MonoQ); not shown: thioredoxin A, N-terminal, cleaved; His6, internal, cleaved
T4 sequence (looked up): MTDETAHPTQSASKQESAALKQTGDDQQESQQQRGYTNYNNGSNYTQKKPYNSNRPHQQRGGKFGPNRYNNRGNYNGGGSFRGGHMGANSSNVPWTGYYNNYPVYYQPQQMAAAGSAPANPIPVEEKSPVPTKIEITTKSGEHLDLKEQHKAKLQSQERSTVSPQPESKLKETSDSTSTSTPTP
The data set can be described thus: cross-linking; glutaraldehyde by vapour diffusion, 16 h at 4°C; Pub1p proteins 10 µM, Tif4631p (1–402) 1 µM, Tif4631p (1–184) 4 µM; 25 mM potassium phosphate, 150 mM NaCl, 0.1 mM DTT, pH 8.0; 15% SDS-PAGE, silver stain. As to conditions: both partners purified.

As to UUUUUUUUUU (ssRNA) [U10], the binding result with Pub1p R3 (RRM3, TRRM) [1] is listed as “binds”. As to UAUAUAUAUAUAUA (ssRNA) [(UA)7], the Kd (commonly the concentration at which binding is half-saturated) in the data set with Pub1p R12 (RRM1-RRM2) [2] was 894 nM; with Pub1p R3 (RRM3, TRRM) [3], less than 1000 nM. With UUUUUUUUUUUUUU (ssRNA) [U14], the Kd was less than 250 nM in the data set with Pub1p R12 (RRM1-RRM2) [4] and 2160 nM with Pub1p R3 (RRM3, TRRM) [3]. With CUCUCUCUCUCU (ssRNA) [(CU)6], the Kd with Pub1p R3 (RRM3, TRRM) [5] worked out at 18.8 µM. For UAUAUAUAUAUA (ssRNA) [(UA)6], in the data set with Pub1p R3 (RRM3, TRRM) [1], the binding result is “binds”.

Regarding UUUUUUUUUUUU (ssRNA) [U12], the binding result in the data set with Pub1p R3 (RRM3, TRRM) [1] is “binds”.

Regarding AAAAAAAAAAAAAA (ssRNA) [A14], the Kd with Pub1p R3 (RRM3, TRRM) [3] turned out to be 78500 nM. For AGAGAGAG (ssRNA) [(AG)4], the Kd with Pub1p R3 (RRM3, TRRM) [5] is 88.3 µM.

B1: Pub1p R3 (RRM3 domain, residues 315–414) (domain or fragment, Saccharomyces cerevisiae, UniProt P32588 315-414, looked up)
chain: T1 sequence
notes: also called Pub1p TRRM; Pub1p RRM3; source: E. coli BL21(DE3), purified (HisTrap, TEV digestion, second nickel column, cation exchange); not shown: thioredoxin A, N-terminal, cleaved; His6, internal, cleaved
B1: the binding result with Tif4631p (1–402) and in the data set with Tif4631p (1–184) was “binds” in each case.
